Source: IntAct's records for PubMed 22699936

B1: Centrosomal P4.1-associated protein (Homo sapiens), Q9HC77 (parent)
chain: MFLMPTSSELNSGQNFLTQWMTNPSRAGVILNRGFPILEADKEKRAAVDISTSFPIKGTHFSDSFSFINEEDSLLEEQKLESNNPYKPQSDKSETHTAFPCIKKGPQVAACHSAPGHQEENKNDFIPDLASEFKEGAYKDPLFKKLEQLKEVQQKKQEQLKRQQLEQLQRLMEEQEKLLTMVSGQCTLPGLSLLPDDQSQKHRSPGNTTTGERATCCFPSYVYPDPTQEETYPSNILSHEQSNFCRTAHGDFVLTSKRASPNLFSEAQYQEAPVEKNNLKEENRNHPTGESILCWEKVTEQIQEANDKNLQKHDDSSEVANIEERPIKAAIGERKQTFEDYLEEQIQLEEQELKQKQLKEAEGPLPIKAKPKQPFLKRGEGLARFTNAKSKFQKGKESKLVTNQSTSEDQPLFKMDRQQLQRKTALKNKELCADNPILKKDSKARTKSGSVTLSQKPKMLKCSNRKSLSPSGLKIQTGKKCDGQFRDQIKFENKVTSNNKENVTECPKPCDTGCTGWNKTQGKDRLPLSTGPASRLAAKSPIRETMKESESSLDVSLQKKLETWEREKEKENLELDEFLFLEQAADEISFSSNSSFVLKILERDQQICKGHRMSSTPVKAVPQKTNPADPISHCNRSEDLDHTAREKESECEVAPKQLHSLSSADELREQPCKIRKAVQKSTSENQTEWNARDDEGVPNSDSSTDSEEQLDVTIKPSTEDRERGISSREDSPQVCDDKGPFKDTRTQEDKRRDVDLDLSDKDYSSDESIMESIKHKVSEPSRSSSLSLSKMDFDDERTWTDLEENLCNHDVVLGNESTYGTPQTCYPNNEIGILDKTIKRKIAPVKRGEDLSKSRRSRSPPTSELMMKFFPSLKPKPKSDSHLGNELKLNISQDQPPGDNARSQVLREKIIELETEIEKFKAENASLAKLRIERESALEKLRKEIADFEQQKAKELARIEEFKKEEMRKLQKERKVFEKYTTAARTFPDKKEREEIQTLKQQIADLREDLKRKETKWSSTHSRLRSQIQMLVRENTDLREEIKVMERFRLDAWKRAEAIESSLEVEKKDKLANTSVRFQNSQISSGTQVEKYKKNYLPMQGNPPRRSKSAPPRDLGNLDKGQAASPREPLEPLNFPDPEYKEEEEDQDIQGEISHPDGKVEKVYKNGCRVILFPNGTRKEVSADGKTITVTFFNGDVKQVMPDQRVIYYYAAAQTTHTTYPEGLEVLHFSSGQIEKHYPDGRKEITFPDQTVKNLFPDGQEESIFPDGTIVRVQRDGNKLIEFNNGQRELHTAQFKRREYPDGTVKTVYANGHQETKYRSGRIRVKDKEGNVLMDTEL

Variants of: B1
Conditions: with tnks1_human TNKS

Variant | effect of a mutation on the interaction
D1302A | disrupting interaction
G1303A | disrupting interaction
